Measured values as given in PMC12852381 (2025).

Target: DENV-2 Envelope protein (DENV E dimeric protein) (Dengue virus type 2; strain of the BLI …, UniProt P14340)
Assay: BLI; Octet RED 96, 24 °C, 1,000 rpm; CR3022 (5 µg/ml) loaded on AHC (anti-hIgG Fc capture) sensors; DENV E dimeric protein diluted three-fold from 6,000 nM; 50 mM Tris, 150 mM NaCl, 0.5% glycerol, pH 8.0; global 1:1 fit
Settings: both partners purified

B1: CR3022, an antibody against the SARS-CoV-2 spike protein (antibody, V domains shown)
VH: EVQLVQSGTEVKKPGESLKISCKGSGYGFITYWIGWVRQMPGKGLEWMGIIYPGDSETRYSPSFQGQVTISADKSINTAYLQWSSLKASDTAIYYCAGGSGISTPMDVWGQGTTVTVSS
VL: not shown
- Kd: 2.83 µM
